Data as given in publication PMC8965161, “Suppression of ATG4B by copper inhibits autophagy and involves in Mallory body formation” (Redox Biology, 2022).

B1: recombinant ATG4B protein without His-Tag (enzyme, human, UniProt Q9Y4P1 1-393, looked up)
chain: MDAATLTYDTLRFAEFEDFPETSEPVWILGRKYSIFTEKDEILSDVASRLWFTYRKNFPAIGGTGPTSDTGWGCMLRCGQMIFAQALVCRHLGRDWRWTQRKRQPDSYFSVLNAFIDRKDSYYSIHQIAQMGVGEGKSIGQWYGPNTVAQVLKKLAVFDTWSSLAVHIAMDNTVVMEEIRRLCRTSVPCAGATAFPADSDRHCNGFPAGAEVTNRPSPWRPLVLLIPLRLGLTDINEAYVETLKHCFMMPQSLGVIGGKPNSAHYFIGYVGEELIYLDPHTTQPAVEPTDGCFIPDESFHCQHPPCRMSIAELDPSIAVGFFCKTEDDFNDWCQQVKKLSLLGGALPMFELVELQPSHLACPDVLNLSLDSSDVERLERFFDSEDEDFEILSL
notes: ATG4B, cysteine protease, human; source: recombinant, purified, without His-Tag

Columns and labels:
ATG4B^C0-GFP = ATG4B^C0-GFP (UniProt Q9Y4P1); assay: differential detergent fractionation and western blot under non-reduced condition, oligomer band quantified (self-oligomer formation in cells); design: reference not given here; conditions: HEK-293T cells, read off a plot
[1] = target: the molecule itself; assay: non-reduced SDS-PAGE with Coomassie staining; ATG4B protein (4 ug) treated with designed concentrations of copper ions at 4 C for 30 min, stopped with 10 mM NEM; non-reduced condition

Molecule | response (ATG4B^C0-GFP; Insoluble fraction, 1 mM copper ions (CuCl2) for 6 h) | response (ATG4B^C0-GFP; Insoluble fraction, no CuCl2) | response (ATG4B^C0-GFP; Soluble fraction, 1 mM copper ions (CuCl2) for 6 h) | response (ATG4B^C0-GFP; Soluble fraction, no CuCl2) | binding result [1]
ATG4B-GFP (from UniProt Q9Y4P1) C0 (all 14 cysteines to serines) | 0.55 | 0.39 | 0.15 | 0.068 | –
B1 | – | – | – | – | binds
